This note sets out measurements from patent US20110118131A1 (published 2011).

In experiment [1] the target is T1, IL-1β (UniProt P01584 117-269).
T1 construct: Antigen of XPA23
As to the kind of experiment: Biacore, Fab periplasmic extract. Background: Surface plasmon resonance follows binding to a sensor surface in real time, without labels.

Experiment [2] has as its target T2, IL-1β (UniProt P01584 117-269).
T2 construct: Antigen immobilised on the Biacore chip
The experiment in a line: Biacore, periplasmic extract.

Positions count from the first letter of the chain named. Numbers in names are those of the source.

B1: XPA23 heavy chain D106G (Fab, V domains shown)
VH: EVQLLESGGGLVQPGGSLRLSCAASGFTFSKYFMFWVRQAPGKGLEWVSVISPSGGMTRYADSVKGRFTISRDNSKNTLYLQMNSLRAEDTAVYYCARVGYGGNSGYWGQGTLVTVSS
VL: DIQMTQSPSSVSASVGDRLTIICRASQDINRWLAWYQQTPGNAPKLLIHSATSLQSGVPSRFSGSGSGTDFTLTINSLQPEDFATYYCQQADSFPLTFGGGTKVEIK
notes: Fab, periplasmic extract; also called C5A D106G
In the case of B1, the “fold difference in affinity against the original” value with IL-1β [1] is 0.03 fold.

B2: XPA23 light chain W32N (Fab, V domains shown)
VH: B1 VH with G106D
VL: B1 VL with W32N
With B2, the binding result with IL-1β [2] is reported as “no binding”.

B3: XPA23 light chain W32R (Fab, V domains shown)
VH: B1 VH with G106D
VL: B1 VL with W32R
In the case of B3, the binding result with IL-1β [2] is on record as “no binding”.

B4: XPA23 light chain W32Q (Fab, V domains shown)
VH: B1 VH with G106D
VL: B1 VL with W32Q
For B4, the binding result in the experiment with IL-1β [2] is “no binding”.

B5: XPA23 light chain W32L (Fab, V domains shown)
VH: B1 VH with G106D
VL: B1 VL with W32L
Turning to B5, the binding result with IL-1β [2] is on record as “no binding”.

B6: XPA23 heavy chain G55I (Fab, V domains shown)
VH: B1 VH with G55I, G106D
VL: B1 VL
notes: Fab, periplasmic extract; also called C5A G55I
In the case of B6, the “fold difference in affinity against the original” value in the experiment with IL-1β [1] amounted to 0.86 fold.

B7: XPA23 light chain W32Y (Fab, V domains shown)
VH: B1 VH with G106D
VL: B1 VL with W32Y
Take B7: the binding result with IL-1β [2] was “no binding”.

B8: XPA23 heavy chain F35P (Fab, V domains shown)
VH: B1 VH with F35P, G106D
VL: B1 VL
notes: Fab, periplasmic extract; also called C5A F35P
As for B8, the “fold difference in affinity against the original” value with IL-1β [1] amounted to 0.06 fold.

B9: XPA23 light chain W32S (Fab, V domains shown)
VH: B1 VH with G106D
VL: B1 VL with W32S
Take B9: the binding result in the experiment with IL-1β [2] is reported as “no binding”.

B10: XPA23 light chain W32E (Fab, V domains shown)
VH: B1 VH with G106D
VL: B1 VL with W32E
In the case of B10, the binding result in the experiment with IL-1β [2] is listed as “no binding”.

B11: XPA23 heavy chain F35I (Fab, V domains shown)
VH: B1 VH with F35I, G106D
VL: B1 VL
notes: Fab, periplasmic extract; also called C5A F35I
On to B11, for which the “fold difference in affinity against the original” value with IL-1β [1] stood at 0.85 fold.

B12: XPA23 light chain W32V (Fab, V domains shown)
VH: B1 VH with G106D
VL: B1 VL with W32V
As to B12, the binding result with IL-1β [2] is “no binding”.

B13: XPA23 heavy chain F35L (Fab, V domains shown)
VH: B1 VH with F35L, G106D
VL: B1 VL
notes: Fab, periplasmic extract; also called C5A F35L
In the case of B13, in the experiment with IL-1β [1], the “fold difference in affinity against the original” value amounted to 0.78 fold.

B14: XPA23 heavy chain F33G (Fab, V domains shown)
VH: B1 VH with F33G, G106D
VL: B1 VL
notes: Fab, periplasmic extract; also called C5A F33G
On to B14, for which the “fold difference in affinity against the original” value with IL-1β [1] is 0.76 fold.

B15: XPA23 light chain W32K (Fab, V domains shown)
VH: B1 VH with G106D
VL: B1 VL with W32K
As to B15, the binding result with IL-1β [2] was “no binding”.

B16: XPA23 heavy chain F33A (Fab, V domains shown)
VH: B1 VH with F33A, G106D
VL: B1 VL
notes: Fab, periplasmic extract; also called C5A F33A
B16: the “fold difference in affinity against the original” value in the experiment with IL-1β [1] is 0.75 fold.

B17: XPA23 light chain T52L (Fab, V domains shown)
VH: B1 VH with G106D
VL: B1 VL with T52L
Regarding B17, the “fold difference in affinity vs original” value in the experiment with IL-1β [2] turned out to be 0.78 fold.

B18: XPA23 heavy chain F33L (Fab, V domains shown)
VH: B1 VH with F33L, G106D
VL: B1 VL
notes: Fab, periplasmic extract; also called C5A F33L
Regarding B18, the “fold difference in affinity against the original” value with IL-1β [1] was found to be 0.88 fold.

B19: XPA23 light chain T52W (Fab, V domains shown)
VH: B1 VH with G106D
VL: B1 VL with T52W
Take B19: the “fold difference in affinity vs original” value with IL-1β [2] was determined as 0.87 fold.

B20: XPA23 heavy chain F33V (Fab, V domains shown)
VH: B1 VH with F33V, G106D
VL: B1 VL
notes: Fab, periplasmic extract; also called C5A F33V
As for B20, in the experiment with IL-1β [1], the “fold difference in affinity against the original” value was found to be 0.76 fold.

B21: XPA23 light chain W32D (Fab, V domains shown)
VH: B1 VH with G106D
VL: B1 VL with W32D
On to B21, for which the binding result with IL-1β [2] is recorded as “no binding”.

B22: XPA23 light chain W32P (Fab, V domains shown)
VH: B1 VH with G106D
VL: B1 VL with W32P
Turning to B22, in the experiment with IL-1β [2], the binding result is “no binding”.

B23: XPA23 heavy chain F33I (Fab, V domains shown)
VH: B1 VH with F33I, G106D
VL: B1 VL
notes: Fab, periplasmic extract; also called C5A F33I
As for B23, the “fold difference in affinity against the original” value in the experiment with IL-1β [1] came out at 0.75 fold.

B24: XPA23 heavy chain F35T (Fab, V domains shown)
VH: B1 VH with F35T, G106D
VL: B1 VL
notes: Fab, periplasmic extract; also called C5A F35T
B24: in the experiment with IL-1β [1], the “fold difference in affinity against the original” value is 0.74 fold.

B25: XPA23 heavy chain F33T (Fab, V domains shown)
VH: B1 VH with F33T, G106D
VL: B1 VL
notes: Fab, periplasmic extract; also called C5A F33T
Regarding B25, the “fold difference in affinity against the original” value with IL-1β [1] was found to be 0.78 fold.

B26: XPA23 heavy chain F35G (Fab, V domains shown)
VH: B1 VH with F35G, G106D
VL: B1 VL
notes: Fab, periplasmic extract; also called C5A F35G
On to B26, for which, in the experiment with IL-1β [1], the “fold difference in affinity against the original” value came out at 0.04 fold.

B27: XPA23 light chain W32I (Fab, V domains shown)
VH: B1 VH with G106D
VL: B1 VL with W32I
As for B27, the binding result in the experiment with IL-1β [2] was “no binding”.

B28: XPA23 light chain W32F (Fab, V domains shown)
VH: B1 VH with G106D
VL: B1 VL with W32F
As to B28, in the experiment with IL-1β [2], the binding result is reported as “no binding”.

B29: XPA23 light chain W32T (Fab, V domains shown)
VH: B1 VH with G106D
VL: B1 VL with W32T
Take B29: the binding result in the experiment with IL-1β [2] was “no binding”.

B30: XPA23 light chain T52S (Fab, V domains shown)
VH: B1 VH with G106D
VL: B1 VL with T52S
With B30, the “fold difference in affinity vs original” value in the experiment with IL-1β [2] was determined as 0.78 fold.

B31: XPA23 light chain T52R (Fab, V domains shown)
VH: B1 VH with G106D
VL: B1 VL with T52R
As for B31, the “fold difference in affinity vs original” value with IL-1β [2] came to 3.37 fold.

B32: XPA23 light chain T52N (Fab, V domains shown)
VH: B1 VH with G106D
VL: B1 VL with T52N
As to B32, the “fold difference in affinity vs original” value in the experiment with IL-1β [2] was found to be 0.83 fold.

B33: XPA23 light chain T52V (Fab, V domains shown)
VH: B1 VH with G106D
VL: B1 VL with T52V
In the case of B33, the “fold difference in affinity vs original” value with IL-1β [2] was 0.82 fold.

B34: XPA23 light chain W32H (Fab, V domains shown)
VH: B1 VH with G106D
VL: B1 VL with W32H
As to B34, the binding result with IL-1β [2] was “no binding”.

B35: XPA23 light chain W32G (Fab, V domains shown)
VH: B1 VH with G106D
VL: B1 VL with W32G
Turning to B35, in the experiment with IL-1β [2], the binding result was “no binding”.

B36: XPA23 light chain T52Y (Fab, V domains shown)
VH: B1 VH with G106D
VL: B1 VL with T52Y
As to B36, the “fold difference in affinity vs original” value in the experiment with IL-1β [2] turned out to be 1.01 fold.

B37: XPA23 light chain W32A (Fab, V domains shown)
VH: B1 VH with G106D
VL: B1 VL with W32A
B37: the binding result with IL-1β [2] is listed as “no binding”.

B38: XPA23 light chain T52Q (Fab, V domains shown)
VH: B1 VH with G106D
VL: B1 VL with T52Q
Turning to B38, the “fold difference in affinity vs original” value with IL-1β [2] is 0.83 fold.

B39: XPA23 heavy chain F35V (Fab, V domains shown)
VH: B1 VH with F35V, G106D
VL: B1 VL
notes: Fab, periplasmic extract; also called C5A F35V
On to B39, for which the “fold difference in affinity against the original” value with IL-1β [1] was 0.89 fold.

B40: XPA23 heavy chain F35A (Fab, V domains shown)
VH: B1 VH with F35A, G106D
VL: B1 VL
notes: Fab, periplasmic extract; also called C5A F35A
Turning to B40, the “fold difference in affinity against the original” value with IL-1β [1] came to 0.07 fold.

B41: XPA23 light chain T52P (Fab, V domains shown)
VH: B1 VH with G106D
VL: B1 VL with T52P
For B41, the “fold difference in affinity vs original” value in the experiment with IL-1β [2] came out at 1.08 fold.

B42: XPA23 heavy chain F33P (Fab, V domains shown)
VH: B1 VH with F33P, G106D
VL: B1 VL
notes: Fab, periplasmic extract; also called C5A F33P
Consider B42, for which the “fold difference in affinity against the original” value with IL-1β [1] was 0.91 fold.
